Square brackets hold non-standard residues; d marks the D form. Ends that are not written are not given here. Nle = CCCC[C@H](N)C(=O)O

Series [1] deals with T1, human GLP-2R (Homo sapiens, UniProt O95838).
T1 construct: The full-length cDNA of human GLP-2R was synthesized, cloned, and inserted into the pLU.cmv.Zeo vector; expressed in transfected cells
T1 sequence (O95838 1-553): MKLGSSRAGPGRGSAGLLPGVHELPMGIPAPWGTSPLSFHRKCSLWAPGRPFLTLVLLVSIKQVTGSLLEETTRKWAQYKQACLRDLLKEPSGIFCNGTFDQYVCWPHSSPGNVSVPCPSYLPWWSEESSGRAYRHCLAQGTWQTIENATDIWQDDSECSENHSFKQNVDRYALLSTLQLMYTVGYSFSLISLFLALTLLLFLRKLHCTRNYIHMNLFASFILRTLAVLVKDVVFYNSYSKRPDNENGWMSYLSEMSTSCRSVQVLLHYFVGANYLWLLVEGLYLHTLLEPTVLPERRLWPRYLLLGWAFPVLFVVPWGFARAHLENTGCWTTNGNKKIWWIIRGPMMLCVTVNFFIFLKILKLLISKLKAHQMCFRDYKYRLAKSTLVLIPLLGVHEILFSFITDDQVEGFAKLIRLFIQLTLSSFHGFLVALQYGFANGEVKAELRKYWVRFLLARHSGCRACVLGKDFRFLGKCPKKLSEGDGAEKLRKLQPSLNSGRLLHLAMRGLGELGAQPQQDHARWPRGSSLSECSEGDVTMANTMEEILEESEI
The experiment in a line: Cell-based reporter gene assay (RGA), HEK293-GLP-2R-Luc, CRE-luciferase. The following applies: for concentration–response curve in RGA (specificity) / dose-response curve in RGA: diluted to 2.665 µmol/L and further 7-fold for 10 concentration points, HEK293-GLP-2R-Luc cells; for Mean potency: mean of 8 tests, two analysts. The method, then: To generate a HEK293 cell line stably expressing CRE-driven luciferase and GLP2R, the CRE-miniP.Luc virus-containing cell supernatants were diluted in DMEM in the presence of 8 µg/mL polybrene before being added to HEK293 cells. To obtain a stable cell pool, the medium was replaced 48 h after incubation, with fresh culture medium containing 3 µg/mL puromycin. After about 3 weeks selection, the cell pool was then further infected with pLU.cmv-GLP2R.Zeo virus and selected with 200 µg/mL Zeocin and 3 µg/mL puromycin. […] The expression of GLP-2R was examined using flow cytometry. After that, the positive clones were routinely maintained in selective medium.
Cell-based RGA has been described previously. Briefly, 50 microliters of HEK293-GLP-2R-Luc cells were seeded into a 96-well white plate at a density of 4 × 10^4 cells/well. The cells were then incubated at 37 °C with 5% CO2 overnight (16 to 24 h). […] After 5 h of incubation, 100 µL of britelite plus reporter Gene Assay reagent were added to each well and mixed thoroughly under subdued light conditions for 5 min. The RLU signal was then determined with a SpectraMax M5e multimode plate reader (Molecular Devices, San Jose, CA, USA).
The RGA was validated as described previously. […] Samples of each potency level were tested by two analysts 8 times in total. […] The response of HEK293-GLP2R-Luc cells to these samples were determined as illustrated in 4.6.
The lower/upper asymptote was determined by the ratio of the top asymptote to the bottom asymptote when RGA best fit the 4PL model. The correlation coefficient (R^2), deviations from parallelism, and the regression in the 4PL model were estimated using SoftMax® Pro 7.1 software (Molecular Devices, San Jose, CA, USA). Specifically, a linear regression with an R^2 value no less than 0.98 was considered to have a very good fit. Additionally, a p-value below 0.01 was regarded as statistically significant. […] All the dose-response curves were plotted using GraphPad Prism® software 8.0.2 (GraphPad, Boston, MA, USA).
In general terms: In a reporter assay the amount or activity of a reporter protein is the signal.

Series [2] concerns the target T1, human GLP-2R. Described as above. The following applies: incubation time 5 h and 6 h, compared with 4 h; 96-well plate.
Series [3] in a line: Appearance of teduglutide drug substance solution after storage at 37 °C. The note with it: after incubation for 12 or 14 days at 37 °C. Format: physicochemical.
The subject of series [4] is patients with SBS. The note with it: cited from earlier work. An excerpt:
(§1) This truncated form is subsequently degraded by endopeptidases and presumably cleared via renal excretion. […] Consequently, DPP-4 resistant GLP-2 analogues with an extended half-life were developed.

A short description of series [5]: Teduglutide content by HPLC after storage at 37 °C. It is filed as physicochemical. The note with it: XBridge Peptide BEH C18, 214 nm, peak area ratio to non-treated DS. The method, then: The bioactivities of the treated and non-treated DS were then measured by the RGA. The teduglutide contents were analyzed by HPLC. An XBridge Peptide BEH C18 column (300 A, 5 μm, 4.6 mm × 250 mm) purchased from Waters (Milford, MA, USA) was used with a flow rate of 1.0 mL/min and was detected at 214 nm. The mobile phase was aqueous solution containing 0.1% trifluoroacetic acid and acetonitrile containing 0.1% trifluoroacetic acid. A total of 50 μL DS samples were injected into the column.

On the set-up of series [6]: method as in PMID 35933503. The following applies: general statement; cited from earlier work. An excerpt: The diverse functions of GLP-2 highlight its significance in maintaining intestinal health and physiology. As a naturally occurring gut hormone, GLP-2 not only promotes nutrient absorption by decreasing intestinal motility and permeability, but also plays a pivotal role in stimulating intestinal epithelial cell growth and function. This multifaceted action of GLP-2 is crucial for the maintenance of the intestinal barrier, which is essential for preventing the translocation of harmful bacteria and toxins into the bloodstream.

Series [7] deals with dipeptidyl peptidase 4 (DPP-4). The following applies: cited from earlier work.
From the text: as §1

Series [8] relates to rat GLP-2R. The note with it: BHK fibroblasts stably transfected with the rat GLP-2R; cited from earlier work. An excerpt: GLP-2 exerts its effects largely through interaction with the GLP-2 receptor (GLP-2R), which belongs to the class B1 of the G protein-coupled receptors. […] This led to the hypothesis that GLP-2 acts indirectly through a complex network of indirect mediators that induce diverse signaling pathways, which remains poorly understood.

Series [9] concerns enteric neurons and glial cells. The note with it: via the PI3K/Akt/mTOR pathway; cited from earlier work. An excerpt:
(§2) GLP-2 regulates proliferative and cytoprotective pathways in the intestine. […] Additionally, it couples with the activation of the Ras/MAPK pathway and stimulates DNA synthesis.

Series [10] deals with intestinal epithelium. The following applies: rodents; cited from earlier work.
From the text: as §2

The subject of series [11] is rat. Also on record: method as in PMID 31577440. The note with it: head-to-head preclinical study; cited from earlier work.
For series [12], the system named is intestinal cells. Also on record: method as in PMID 32060615. The note with it: cited from earlier work.

In the case of glucagon-like peptide-1 [GLP-1], in series [1], the “concentration–response curve in RGA (specificity)” value (shortened to “concentration–response curve”) is listed as “unsuccessfully induced”.
With “glucose-dependent insulinotropic peptide [GIP]”, the “concentration–response curve” value in series [1] was “unsuccessfully induced”.
On the same count and under the same terms, for IL-4: 200-04, Thermo Fisher Scientific the value was “no dose–dependent response curve was induced”.
In the case of “His-Gly-Asp-Gly-Ser-Phe-Ser-Asp-Glu-Met-Asn-Thr-Ile-Leu-Asp-Asn-Leu-Ala-Ala-Arg-Asp-Phe-Ile-Asn-Trp-Leu-Ile-Gln-Thr-Lys-Ile-Thr-Asp [teduglutide, [Gly2] hGLP-2 (1–33), first and only GLP-2 analogue approved for medical treatment of short bowel syndrome]”, the “drug response vs incubation time” value in series [2] was “stronger response (higher upper asymptote)”. In series [3], the “precipitation of DS solution” value was “develops a clear colloidal precipitate”. Besides, in series [4] (SBS), the “intestinal absorption, growth and transit in SBS” value is “increase intestinal absorption by promoting intestinal growth and delays accelerated gastric emptying, gastrointestinal transit, and hypersecretions”. The “PN requirements and intestinal function” value in series [4] (patients with SBS, daily treatment) is “significant reduction in PN requirements and an improvement in intestinal function”. Besides, the teduglutide content in series [5] (end of decline with incubation at 37 °C) was 81.6%; in series [5] (start of decline, 37 °C) it was 99.9%. For the same substance, the “response of five clones” value in series [1] (clones D5, D9, E11, F2, G11) was “high response”. The “Mean Ln potency” value in series [1] (expected 50%) was −0.659; in series [1] (expected 71%), −0.343; in series [1] (expected 100%), 0.005; in [1] (expected 141%) it was 0.372; in series [1] (expected 200%), 0.757. Also, the Mean potency in [1] (expected 50%) stood at 0.518; in series [1] (expected 71%) it was 0.711; in [1] (expected 100%), 1.007; in series [1] (expected 141%), 1.453; in series [1] (expected 200%), 2.140. In addition, the bioactivity entry in series [6] is recorded as “enhanced bioactivities”. Besides, the half-life entry in [6] is given as “extended half-lives”.
With Glucagon-like peptide-2 [GLP-2], in series [7] (excision of the two N-terminal amino acids), the “inactivation by DPP-4” value is reported as “rapid inactivation”. The “intestinal absorption, growth and transit in SBS” value in series [4] (SBS) is “increase intestinal absorption by promoting intestinal growth and delays accelerated gastric emptying, gastrointestinal transit, and hypersecretions”. For the same substance, in series [8], the cAMP accumulation entry is given as “dose-dependent cAMP accumulation”. Moreover, the neuronal differentiation entry in series [9] is listed as “stimulate neuronal differentiation”. Also, the “growth of the intestinal epithelium” value in series [10] is given as “enhances the growth of the intestinal epithelium”.
IL-6: 200-06, Thermo Fisher Scientific: in [1], the “concentration–response curve” value is recorded as “no dose–dependent response curve was induced”.
For the substance “GLP-2 (3–33): truncated and inactive GLP-2 formed by DPP-4 (DGSFSDEMNTILDNLAARDFINWLIQTKITD; Glucagon-like peptide 2; UniProt P01275 148-178, looked up, fragment)”, in [7] (DPP-4 cleavage product), the “activity of truncated GLP-2” value was “inactive”.
For “HGDGSFSDE[Nle][dF]TILDLLAARDFINWLIQTKITD-NH2 [apraglutide, GLP-2 analogue under development for SBS, synthesized by GenScript]”, the “dependence on PN support” value in series [4] (Phase II clinical trials, SBS) is listed as “significant reduction in patients’ dependence on PN support”. In addition, in series [11], the “half-life compared to teduglutide and glepaglutide” value is listed as “longer half-life”; the “intestinotrophic effect compared to teduglutide and glepaglutide” value is “greater intestinotrophic effect”. Also, the “dose-response curve in RGA” value in series [1] is reported as “induced sigmoid curves similar to those induced by teduglutide”. Further, in [6], the bioactivity entry is “enhanced bioactivities” and the half-life entry is “extended half-lives”.
For the substance “HGEGSFSSELSTILDALAARDFINWLIATKITDKKKKKK [elsiglutide, GLP-2 analogue under development, synthesized by GenScript]”, the “dose-response curve in RGA” value in [1] was “induced sigmoid curves similar to those induced by teduglutide”. Further, the “cell proliferation and intestinal cell apoptosis” value in series [12] was “increase cell proliferation and reduce intestinal cell apoptosis”. Also, in series [6], the bioactivity entry was “enhanced bioactivities” and the half-life entry was “extended half-lives”.
